The record followed here is patent US20180230218A1.

Assay [1] concerns the target human cMET (MET, c-Met, HGF receptor) on cells (human) (UniProt P08581). The experiment in a line: cell-based or functional assay.
Assay [2] has the same target. The experiment in a line: flow cytometry, inhibition of HGF (50 ng/mL) binding to BxPC3 cells. On the technique in general: A flow cytometer gives signals particle by particle.
Assay [3] shares this target. The experiment in a line: flow cytometry, inhibition of HGF (50 ng/mL) binding to MKN45 cells.

Sequence of human cMET (MET, c-Met, HGF receptor) on cells (human) (P08581 25-1390): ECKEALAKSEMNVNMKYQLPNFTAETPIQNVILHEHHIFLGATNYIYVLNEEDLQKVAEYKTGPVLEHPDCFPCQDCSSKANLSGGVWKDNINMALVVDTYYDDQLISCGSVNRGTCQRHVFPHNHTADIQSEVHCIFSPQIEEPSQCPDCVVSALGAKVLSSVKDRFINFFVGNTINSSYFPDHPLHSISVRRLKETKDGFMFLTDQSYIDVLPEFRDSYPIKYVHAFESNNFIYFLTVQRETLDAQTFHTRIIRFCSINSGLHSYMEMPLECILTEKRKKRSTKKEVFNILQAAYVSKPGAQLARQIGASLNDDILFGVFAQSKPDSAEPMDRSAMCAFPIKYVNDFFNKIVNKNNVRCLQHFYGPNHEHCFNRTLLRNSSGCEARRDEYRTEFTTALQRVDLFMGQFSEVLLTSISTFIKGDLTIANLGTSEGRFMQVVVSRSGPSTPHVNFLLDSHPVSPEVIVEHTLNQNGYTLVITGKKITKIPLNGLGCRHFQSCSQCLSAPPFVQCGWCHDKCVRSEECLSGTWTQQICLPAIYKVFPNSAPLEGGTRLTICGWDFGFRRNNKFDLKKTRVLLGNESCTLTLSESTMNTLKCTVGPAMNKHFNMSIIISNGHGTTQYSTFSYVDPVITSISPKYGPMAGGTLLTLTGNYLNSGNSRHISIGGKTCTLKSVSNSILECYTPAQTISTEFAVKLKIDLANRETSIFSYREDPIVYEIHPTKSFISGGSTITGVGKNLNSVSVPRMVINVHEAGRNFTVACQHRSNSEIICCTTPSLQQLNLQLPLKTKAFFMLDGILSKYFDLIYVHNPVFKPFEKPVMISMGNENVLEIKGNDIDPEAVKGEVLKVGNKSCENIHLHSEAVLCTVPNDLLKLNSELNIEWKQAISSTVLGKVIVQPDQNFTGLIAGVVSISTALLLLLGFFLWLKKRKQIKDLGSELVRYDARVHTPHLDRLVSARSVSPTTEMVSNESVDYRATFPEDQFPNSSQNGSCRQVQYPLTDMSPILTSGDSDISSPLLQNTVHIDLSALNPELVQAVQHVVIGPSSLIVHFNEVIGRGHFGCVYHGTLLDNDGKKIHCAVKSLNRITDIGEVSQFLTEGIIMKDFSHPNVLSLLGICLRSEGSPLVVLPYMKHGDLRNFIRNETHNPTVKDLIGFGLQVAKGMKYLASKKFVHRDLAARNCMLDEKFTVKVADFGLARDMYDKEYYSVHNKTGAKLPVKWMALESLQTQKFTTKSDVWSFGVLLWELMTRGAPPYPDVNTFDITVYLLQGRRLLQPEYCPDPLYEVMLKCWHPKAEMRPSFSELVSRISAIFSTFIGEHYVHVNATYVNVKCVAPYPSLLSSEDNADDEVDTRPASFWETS

With 5D5 (antibody), the percent induction of NCI-H441 cell growth (WST-8), normalised to 100 ng/mL HGF in assay [1] amounted to 92%. For the substance 224G11 (antibody), the % inhibition of HGF binding in assay [2] was found to be 50%; in assay [3] it was 67%.

Take huIgG-SMCC-DM1 (antibody): the in vitro cytotoxicity in MET-expressing MKN45 cells, EC50 in assay [1] was > 30 nM.
